In US20070111259A1 (BIOSITE, published 2007):

Tests used:
[1] = molecular target: T1, biotinylated interleukin 8 (IL8-biotin) (human, UniProt P10145 21-99, reacted with biotin-XX-NHS ester (1 mM); labelled residues not stated); test: fraction of Fab bound by a large excess of biotin-IL-8, removed on avidin magnetic latex
T1 construct: mature; also called IL-8 labeled with biotin; biotinylated IL-8
T1 sequence: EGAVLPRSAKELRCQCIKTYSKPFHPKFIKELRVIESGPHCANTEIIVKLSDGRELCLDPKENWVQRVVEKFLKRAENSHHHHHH

[2] = molecular target: T1, biotinylated interleukin 8 (IL8-biotin); test: solution equilibrium with 1e-10 M biotin-IL-8, B/F vs B plot, free Fab by sandwich ELISA
Procedure: The equilibrium binding constants of individual monoclonal antibodies were determined by analysis of the total and free antibody concentrations after a binding equilibrium was established in the presence of biotinylated IL-8 at 10⁻¹⁰ M in a 1% solution of bovine serum albumin buffered at pH 8.0. […] The supernatant solution was removed from the microtiter wells containing the magnetic particles and the antibody concentration was determined. The concentration of total antibody added to the individual wells was determined by quantifying the antibody in a sample that was not mixed with IL-8. […] When determining the concentration of total antibody in an equilibrium mixture, the antibody concentration is the amount of total antibody in the mixture determined from the assay described below multiplied by the immunoreactive fraction. Similarly, when calculating the free antibody in an equilibrium mixture after the removal of IL-8, the non-immunoreactive fraction of antibody is subtracted from the free antibody concentration determined by the assay described below. The bound fraction, B, is determined by subtracting the free immunoreactive antibody concentration in the mixture, F, from the total immunoreactive antibody concentration in the mixture. […]

| Binder | % Immunoreactive Protein [1] [%] | Ka [2] [M⁻¹] |
| --- | --- | --- |
| M1-10 (Fab, also called M1_10H; M1_10L) heavy: QVQLVQSGGGLVHPGGSLRLSCEGSGFIFRNHPIHWVRQAPGKGLEWVSVSGIGGDTYYADSVKGRFSISRDNAKNSLYLQMNSLRAEDMAVYYCAREYYYGSGSYRVDYYYYGMDVWGQGTTVTVSSASTKGPSVFPLAPSSKSTSGGTAALGCLVKDYFPEPVTVSWNSGALTSGVHTFPAVLQSSGLYSLSSVVTVPSSSLGTQTYICNVNHKPSNTKVDKKAEPKSHHHHHH light: not shown | 90 |  |
| M1-21 (Fab, also called M1_21H; M1_21L) heavy: QVQLVQSGGGVVQPGKSLRLSCAASGFTFSYYGMHWVRQVPGKGLEWVAAVWYDGSTTYSPDSVKGRFTISRDDSKNTLYLQMSSLRAEDTAVYYCARDRVGLFDYWGQGTLVTVSSASTKGPSVFPLAPSSKSTSGGTAALGCLVKDYFPEPVTVSWNSGALTSGVHTFPAVLQSSGLYSLSSVVTVPSSSLGTQTYICNVNHKPSNTKVDKKAEPKSHHHHHH light: not shown | 67 | 6.6e+10 |
